± gives the standard deviation of the averaged measurements.
The sequences below were run on Saccharomyces cerevisiae (assay: protein stability index of tFT-peptide fusion (C-terminal peptide) (PSI (0-1 scale)); higher = more stable (slower turnover)). Details: genetic background: wild type; temperature: 30 C.
Protocol: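 MPS profiling in S. cerevisiae of the tFT-X12 degron library: putative degron peptides plus stable controls, 12 aa, fused to the C-terminus of a sfGFP-mCherry timer. Cells are FACS-sorted into 8 mCherry/sfGFP bins and deep-sequenced. PSI runs from 0 (unstable) to 1 (stable). Backgrounds are wild type, das1Δ and doa10Δ at 30 °C, and wild type, das1Δ, cdc34-1 and cdc53-1 at 37 °C; 2-3 technical replicates each.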
CREFLQSMLFYC gave a protein stability index of 0.281 ± 0.021. Work on CSAVYNLHLLYS yielded a protein stability index of 0.48 ± 0.022. Work on CSFPTFRSLLLL yielded a protein stability index of 0.23 ± 0.021. Sequence CSPSCNIVRLVS has a protein stability index of 0.114 ± 0.017. With CTYSLSVLFVFF the protein stability index was 0.307 ± 0.035. Sequence CVFFCVLVCFLS has a protein stability index of 0.3 ± 0.027. Sequence CVLSWSLFVVVW has a protein stability index of 0.0168 ± 0.0058. In the case of CVVFLWCGGCWV, the protein stability index is reported as 0.331 ± 0.03. CVVLCLFCWCML gave a protein stability index of 0.305 ± 0.021. CYCSIGCLIIFS was tested, and the protein stability index was 0.22 ± 0.023. For DALHPCIIYLTC, the protein stability index was 0.254 ± 0.022. Sequence DECQLCNRDWRG has a protein stability index of 0.657 ± 0.042. Work on DKKPMKKILLCI yielded a protein stability index of 0.0973 ± 0.0084. For DRLRSGLSLLLA, the protein stability index was 0.411 ± 0.02. DRQMRCVHIHYL gave a protein stability index of 0.301 ± 0.015. In the case of DRYSFYGYVVVL, the protein stability index is reported as 0.186 ± 0.02. Work on DVCGVRYVLFVL yielded a protein stability index of 0.428 ± 0.026. DVRLVLCEMIKG gave a protein stability index of 0.426 ± 0.021. Work on DVYIVLFIIKHG yielded a protein stability index of 0.175 ± 0.034. EFFTLYDLVRFI showed a protein stability index of 0.232 ± 0.013. Sequence ELTYVYRTALIA has a protein stability index of 0.105 ± 0.014. EMSIISVLRVIS gave a protein stability index of 0.218 ± 0.034. Sequence ERFILVGMFGSW has a protein stability index of 0.529 ± 0.027. ERWSPWIVVFTN was tested, and the protein stability index was 0.185 ± 0.022. ESVPLLIVLHLV gave a protein stability index of 0.0885 ± 0.0083. In the case of ETVHVISLIAIG, the protein stability index is reported as 0.33 ± 0.021. For EWFFCLGLFRFH, the protein stability index was 0.235 ± 0.025. Sequence FASVFCVVTGYV has a protein stability index of 0.429 ± 0.013. Work on FCALWLCFRLMV yielded a protein stability index of 0.149 ± 0.017. With FCCLVLDLEVSG the protein stability index was 0.372 ± 0.016. With FCLFMFVPLLPL the protein stability index was 0.452 ± 0.027. In the case of FCMLCVVFLGSL, the protein stability index is reported as 0.397 ± 0.015. Sequence FCVCLAVTCCGG has a protein stability index of 0.26 ± 0.024. Work on FDWLFFFVNFVV yielded a protein stability index of 0.163 ± 0.019. Sequence FFAFLRFFIFYW has a protein stability index of 0.328 ± 0.0074. Sequence FFALFLPLACFC has a protein stability index of 0.386 ± 0.014. FFCCFVFVLGFC gave a protein stability index of 0.291 ± 0.019. In the case of FFCSILLGIILL, the protein stability index is reported as 0.37 ± 0.033. For FFFCFFIFCFSL, the protein stability index was 0.324 ± 0.015. FFFFSFFLATFS showed a protein stability index of 0.26 ± 0.036. FFGVFIFPVSCR was tested, and the protein stability index was 0.209 ± 0.032. With FFGVLFRVSLFF the protein stability index was 0.173 ± 0.017. For FFLLLLRPPLVM, the protein stability index was 0.267 ± 0.03. With FFRFCFLLLASS the protein stability index was 0.188 ± 0.013. FFSRSLGAGVAA was tested, and the protein stability index was 0.604 ± 0.013. In the case of FFVEFFLLCFCS, the protein stability index is reported as 0.472 ± 0.019. With FFVSFFFFLWLV the protein stability index was 0.161 ± 0.018. For FGFFDIKLPVVA, the protein stability index was 0.373 ± 0.041. Sequence FGVECDLCLFCC has a protein stability index of 0.257 ± 0.014. In the case of FGVVRVSIPVGV, the protein stability index is reported as 0.233 ± 0.024. FIFCLSCGVWGG was tested, and the protein stability index was 0.466 ± 0.012. For FILLFGFSHWVW, the protein stability index was 0.37 ± 0.03. FILLTLVFGCAS showed a protein stability index of 0.22 ± 0.035. Sequence FLAFLEPRVCCA has a protein stability index of 0.228 ± 0.031. For FLAFSYIRLLFF, the protein stability index was 0.122 ± 0.023. For FLCWLSFIPLLS, the protein stability index was 0.256 ± 0.017. For FLFFCGWVSLFG, the protein stability index was 0.364 ± 0.023. In the case of FLFFMGVGVVLY, the protein stability index is reported as 0.325 ± 0.025. In the case of FLFIFFFFLISF, the protein stability index is reported as 0.242 ± 0.021. In the case of FLFLFLFPFSLI, the protein stability index is reported as 0.386 ± 0.0079.

— the supplement of paper PMC10724198
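Further: PSI is a weighted mean of sequencing reads over stability bins, variants kept only with over 10 reads, mCherry proximal and sfGFP distal, peptide attached via GGGS linker.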
